Experimental data taken from patent US20260258143A1 (published 2026).
Numbering of substitutions follows the chain as printed. Like-named read-outs stand apart in the source and are kept apart here.

How the values were obtained:
Assay in all cases: SPR
[1] = molecular target: T1, human CD25-extracellular domain (CD25-ECD) (UniProt P01589 22-240)
T1 chain: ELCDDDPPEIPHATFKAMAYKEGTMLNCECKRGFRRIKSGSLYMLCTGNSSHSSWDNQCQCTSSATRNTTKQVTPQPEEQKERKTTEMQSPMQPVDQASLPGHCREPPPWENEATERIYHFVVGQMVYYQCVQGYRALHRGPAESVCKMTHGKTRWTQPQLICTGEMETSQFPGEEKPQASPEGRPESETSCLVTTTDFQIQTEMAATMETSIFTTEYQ

[2] = molecular target: T1, human CD25-extracellular domain …
[3] = molecular target: T1, human CD25-extracellular domain …
[4] = molecular target: T1, human CD25-extracellular domain …
[5] = molecular target: T1, human CD25-extracellular domain …
83B05Hu1_A = molecular target: 83B05Hu1_A
[6] = molecular target: T1, human CD25-extracellular domain …
[7] = molecular target: T1, human CD25-extracellular domain …
[8] = molecular target: T1, human CD25-extracellular domain …
cCD25 = molecular target: cCD25
cynomolgus CD25 [9] = molecular target: cynomolgus CD25
cynomolgus CD25 [10] = molecular target: cynomolgus CD25; remark: listed apart in the source
[11] = molecular target: T1, human CD25-extracellular domain …
[12] = molecular target: T1, human CD25-extracellular domain …
[13] = molecular target: T1, human CD25-extracellular domain …
[14] = molecular target: T1, human CD25-extracellular domain …
[15] = molecular target: T1, human CD25-extracellular domain …
[16] = molecular target: T1, human CD25-extracellular domain …

B1: ODY-N1998Hu1 (antibody, V domains shown)
VH: EVQLVESGGGLVQPGGSLRLSCAASGRRFSTLIMGWYRQAPGKQRELVATIERGGTPTYADSVKGRFTISRDNAKNTVYLQMNSLRPEDTAVYYCKTLRYWGQGTQVTVSS
- Kd [1]: 31 nM

B2: ODY-N2003Hu1 (antibody, V domains shown)
VH: B1 VH with R28K, G35A, E52D, G54D, P57T, K96S
- Kd [2]: 7.6 nM

B3: ODY-N2002Hu1 (antibody, V domains shown)
VH: B1 VH with A24V, R28S, G35A, E52D, P57T
- Kd [2]: 17 nM

B4: ODY-N1961Hu1 (antibody, V domains shown)
VH: B1 VH with R28S, G35A, P57T, I69A, K96N, T97A, R99G
- Kd [3]: 11 nM

B5: ODY-N1999Hu1 (antibody, V domains shown)
VH: B1 VH with R28K, G54D, G55D, P57T
- Kd [1]: 13 nM

B6: ODY-N1978Hu1 (antibody, V domains shown)
VH: B1 VH with R28S, P57T, K96N, T97A, Y100D
- Kd [4]: 26 nM

B7: ODY-N2001Hu1 (antibody, V domains shown)
VH: B1 VH with R28K, G35A, E52D, G54D, P57T
- Kd [1]: 18 nM

B8: ODY-N1970Hu1 (antibody, V domains shown)
VH: B1 VH with R28S, P57T, K96N, T97A, R99L
- Kd [3]: 12 nM

B9: ODY-N1974Hu1 (antibody, V domains shown)
VH: B1 VH with R28K, G35A, I51V, E52D, P57T, V78T, K96N, T97A, Y100N
- Kd [4]: 20 nM

B10: ODY-N1955Hu1 (antibody, V domains shown)
VH: B1 VH with R28S, G35A, K96N, T97A, R99G
- Kd [3]: 13 nM

B11: ODY-N2000Hu1 (antibody, V domains shown)
VH: B1 VH with R28K, G54D, G55D, P57T, K96T
- Kd [1]: 14 nM

B12: ODY-N2016Hu1 (antibody, V domains shown)
VH: EVQLLESGGGLVQPGGSLRLSCAASGRTFADFGMGWFRQAPGKEREFVAAISRSGGRTRYADSVKGRFTISRDDAKNTVYLQMNSLRPEDTAVYYCAASYFLLAITISGYDYWGQGTQVTVSS
- Kd [5]: 12 nM

B13: human CD25 (receptor)
chain: T1 chain
- Kd (83B05Hu1_A): 76 nM

B14: ODY-N1783Hu1 (antibody, V domains shown)
VH: EVQLLESGGGLAQPGGSLRLSCAASGFTFSNYAMSWARQAPGKGLEWVSGIYSDGSGTYYADSVKGRFTISRDNAKNTVYLQMNSLRPEDTAVYYCSKGARSGSYYPWDDVWGQGTQVTVSS
- Kd [6]: 107 nM

B15: ODY-N1813Hu1 (antibody, V domains shown)
VH: B14 VH with G55S, S97A, A100R, R101G, W108F, D109E, V111Y
- Kd [7]: 50 nM

B16: ODY-N1811Hu1 (antibody, V domains shown)
VH: B14 VH with G55S, S97A, A100R, R101G, W108L, V111Y
- Kd [8]: 348 nM

B17: ODY-N1769Hu1 (antibody, V domains shown)
VH: B14 VH with A37V, A100R, R101H, D110E, V111Y
- Kd [6]: 49 nM

B18: 46A3 (VHH)
VHH: B14 VH with S97A, A100R, R101N, V111Y
- Kd (cCD25): 34 nM

B19: ODY-N1810Hu1 (antibody, V domains shown)
VH: B14 VH with G55S, S97V, A100R, R101G, W108F, V111Y
- Kd [8]: 62 nM

B20: ODY-48D11Hu1 (antibody, V domains shown)
VH: B14 VH with A12V, S97A, A100R, R101N, W108F, V111Y
- Kd [6]: 102 nM

B21: ODY-N1808Hu1 (antibody, V domains shown)
VH: B14 VH with A37V, S97A, K98T, A100K, R101H, V111Y
- Kd [8]: 241 nM

B22: ODY-46A3 (VHH)
VHH: B14 VH with S97A, A100R, R101N, V111Y
- Kd (cynomolgus CD25 [9]): 34 nM

B23: ODY-48C10Hu1 (antibody, V domains shown)
VH: B14 VH with A37T, S97A, A100R, R101N, W108F, V111Y
- Kd [6]: 66 nM

B24: ODY-N1812Hu1 (antibody, V domains shown)
VH: B14 VH with G55S, S97A, A100R, R101G, S104G, W108F, V111Y
- Kd [8]: 149 nM

B25: ODY-83F07Hu1 (VHH)
VHH: EVQLLESGGGLVQPGGSLRLSCAASGFTLDYYAIGWFRQAPGKEREGVLSISSTDGRTYYADSVKGRFTISRDNPKNTVYLQLNSLRPEDTAVYYCAAKRLGPMVHQYSLEVLTPLFLDEYDYWGQGTQVTVSS
- Kd (cynomolgus CD25 [10]): 97 nM
- Kd [11]: 58 nM

B26: 83B05Hu1_L (antibody, V domains shown)
VH: B25 VHH with M104L, Q107R
- Kd [12]: 61 nM

B27: ODY-N2027Hu1 (antibody, V domains shown)
VH: EVQLLESGGGLVQPGGSLRLSCAASGRTFSSYGMGWFRQAPGKEREFVAAISQSGGRTRYADSVKGRFTISRDNAKNTVYLQMNSLRPEDTAVYYCAATNFLIATAISAYDYWGQGTQVTVSS
- Kd [13]: 10 nM

B28: ODY-N2017Hu1 (antibody, V domains shown)
VH: B27 VH with T105A, A106T
- Kd [5]: 13 nM

B29: ODY-N2011Hu1 (antibody, V domains shown)
VH: B12 VH with D31S, R53Q, S54G, I105T
- Kd [14]: 9.4 nM

B30: ODY-N2025Hu1 (antibody, V domains shown)
VH: B27 VH with F101V, A106T
- Kd [13]: 14 nM

B31: ODY-N2024Hu1 (antibody, V domains shown)
VH: B27 VH with A75V, A106T, Y110H
- Kd [5]: 19 nM

B32: ODY-N2022Hu1 (antibody, V domains shown)
VH: B27 VH with N100K, A106T
- Kd [5]: 17 nM

B33: ODY-N2005Hu1 (antibody, V domains shown)
VH: B27 VH with A106T
- Kd [14]: 13 nM

B34: ODY-N2026Hu1 (antibody, V domains shown)
VH: B27 VH with L102P, A106T
- Kd [13]: 11 nM

B35: ODY-N2008Hu1 (antibody, V domains shown)
VH: B12 VH with D31S, S54G, I105T
- Kd [14]: 22 nM

B36: ODY-N2010Hu1 (antibody, V domains shown)
VH: B27 VH with A49V, Q53G, T99S, N100D, A106S
- Kd [14]: 9.4 nM

B37: humanized anti-CD25 V-body 47D3 (VHH)
VHH: B27 VH with L20V, S31W, Y32N, T99S, N100D, I103L, A106T
- Kd [15]: 1.6 nM
- Kd [16]: 1.6 nM
